The target in test [1] is CW7_Lyz2 (amino acids 142 to 473, two cpl-7 motifs and the glucosaminidase domain of PlyCYU) (Streptococcus suis (prophage λSa2%2C)). Briefly: SEC-MALS; Superdex 200 Increase 5/150 GL; 20 mM sodium phosphate, pH 7.0, 150 mM NaCl; 10 µL injected at 10 mg/mL; 0.2 mL/min; self-association, oligomeric number from mass over subunit mass. On the technique in general: Size exclusion chromatography separates by hydrodynamic size, large species first.

Test [2] shares this target. Briefly: SEC; SEC-UV; Superdex 200 Increase 10/300 GL; 50 mM phosphate buffer, pH 7.5, 150 mM NaCl; 0.1-0.4 mg/mL protein; 0.5 mL/min; mass from a calibration curve of standard proteins; PlyCYU214 also with 500 mM NaCl; self-association.
Test [3] has as its target His6-tagged PlyCYU endolysin (full-length) (Streptococcus suis (prophage λSa2%2C)). The experiment in a line: SEC-MALS; Superdex 200 Increase 5/150 GL; 20 mM sodium phosphate, pH 7.0, 150 mM NaCl; 10 µL injected at 10 mg/mL; 0.2 mL/min; self-association, oligomeric number from mass over subunit mass.
For test [4] the target is unchanged. Briefly: SEC; SEC-UV; Superdex 200 Increase 10/300 GL; 50 mM phosphate buffer, pH 7.5, 150 mM NaCl; 0.1-0.4 mg/mL protein; 0.5 mL/min; mass from a calibration curve of standard proteins; PlyCYU214 also with 500 mM NaCl; self-association.
The target in test [5] is cyuLyz2 (amino acids 266 to 473, glucosaminidase domain of PlyCYU) (Streptococcus suis (prophage λSa2%2C)). Briefly: SEC-MALS; Superdex 200 Increase 5/150 GL; 20 mM sodium phosphate, pH 7.0, 150 mM NaCl; 10 µL injected at 10 mg/mL; 0.2 mL/min; self-association, oligomeric number from mass over subunit mass.
Test [6] has the same target. The experiment in a line: SEC; SEC-UV; Superdex 200 Increase 10/300 GL; 50 mM phosphate buffer, pH 7.5, 150 mM NaCl; 0.1-0.4 mg/mL protein; 0.5 mL/min; mass from a calibration curve of standard proteins; PlyCYU214 also with 500 mM NaCl; self-association.

The stoichiometry N is the number of molecules, sites or subunits per partner or assembly. On to “CW7_Lyz2 (amino acids 142 to 473, two cpl-7 motifs and the glucosaminidase domain of PlyCYU) (domain or fragment)”, for which the stoichiometry N was found to be 4.4 in test [1] and 11.8 in test [2].

For “His6-tagged PlyCYU endolysin (full-length) (enzyme)”, the stoichiometry N in test [3] worked out at 5.2; in test [4] it was 6.8.

As for “cyuLyz2 (amino acids 266 to 473, glucosaminidase domain of PlyCYU) (domain or fragment)”, the figures for the stoichiometry N in test [5] and in test [6] were 3.9 and 6.9, respectively.

The values are drawn from article PMC12442389.
